Experimental data taken from patent US20210155689A1 (SHANGHAI PHARMAEXPLORER, published 2021).

How the values were obtained:
[1] = target: T1, human LAG-3 on cells (HEK293-hLAG-3 stable cell line) (human, UniProt P18627 23-525); assay: FACS, HEK293-hLAG-3, antibody 0.064 nM
T1 sequence: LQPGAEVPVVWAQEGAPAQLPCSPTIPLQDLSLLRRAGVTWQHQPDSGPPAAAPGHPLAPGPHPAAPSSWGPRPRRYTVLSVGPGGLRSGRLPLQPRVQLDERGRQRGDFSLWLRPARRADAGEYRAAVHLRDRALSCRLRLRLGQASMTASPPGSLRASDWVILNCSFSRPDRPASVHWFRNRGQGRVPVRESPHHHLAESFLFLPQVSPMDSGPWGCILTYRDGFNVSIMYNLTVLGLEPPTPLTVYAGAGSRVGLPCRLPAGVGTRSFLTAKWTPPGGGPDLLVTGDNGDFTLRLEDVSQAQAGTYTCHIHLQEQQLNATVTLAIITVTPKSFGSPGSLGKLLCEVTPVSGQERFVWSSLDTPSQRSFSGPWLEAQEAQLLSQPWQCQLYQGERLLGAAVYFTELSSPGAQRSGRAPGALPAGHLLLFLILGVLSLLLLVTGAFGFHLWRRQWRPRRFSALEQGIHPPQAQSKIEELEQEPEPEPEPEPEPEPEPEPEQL
Source text: The pIRES plasmid with the monkey-derived full-length gene was transfected into the HEK293 cell line to construct a HEK293 stable cell line containing monkey LAG-3 (herein referred to as HEK293-cLAG-3 stable cell line). The HEK293-hLAG-3 stable cell line and HEK293-cLAG-3 stable cell line were expanded in a T-75 cell culture flask to a 90% confluence. The medium was aspirated, and the cells were washed with HBSS (Hanks' Balanced Salt Solution) 1-2 times, then treated with a enzyme-free cell dissociation fluid (Versene solution: Life technology) and the cells were collected. The cells were washed with HBSS buffer for 1-2 times. After counted, the cells were diluted with HBSS to 1-2×10⁶ cells per ml, added with 1% goat serum blocking solution, incubated on ice for 20-30 minutes, and then washed with HBSS for 2 times by centrifugation. The collected cells were suspended in the FACS buffer (HBSS+1% BSA) to 2×10⁶ cells/ml, added as 100 microliters per well to a 96-well FACS reaction plate, added with 100 microliters per well of the antibody sample to be tested, incubated on ice for 1-2 hours. The plate was washed twice with the FACS buffer by centrifugation, added with 100 microliters of fluorescent (Alexa 488)-labeled secondary antibodies per well, and incubated on ice for 0.5-1.0 hours. The plate was washed 2-3 times with FACS buffer by centrifugation, added with 100 μl fixative solution (4% Paraformaldehyde) per well to suspend the cells. 5-10 minutes later, it was washed 1-2 times with FACS buffer by centrifugation. The cells were suspended with 100 microliters of FACS buffer, FACS (FACSCalibur, BD) was used for detection and the results were analyzed.

[2] = target: T1, human LAG-3 on cells (HEK293-hLAG-3 …); assay: cell-based or functional assay
[3] = target: T2, LAG-3-hFc protein (human LAG-3 extracellular region with hFc tag) (human, UniProt P18627 23-450); assay: FACS, inhibition of LAG-3-hFc binding to MHC II on Raji cells, antibody 7.407 nM
T2 construct: also called hLAG-3-hFc; LAG-3 protein; not shown: human IgG Fc fragment (hFc) of the pCpC vector
T2 sequence: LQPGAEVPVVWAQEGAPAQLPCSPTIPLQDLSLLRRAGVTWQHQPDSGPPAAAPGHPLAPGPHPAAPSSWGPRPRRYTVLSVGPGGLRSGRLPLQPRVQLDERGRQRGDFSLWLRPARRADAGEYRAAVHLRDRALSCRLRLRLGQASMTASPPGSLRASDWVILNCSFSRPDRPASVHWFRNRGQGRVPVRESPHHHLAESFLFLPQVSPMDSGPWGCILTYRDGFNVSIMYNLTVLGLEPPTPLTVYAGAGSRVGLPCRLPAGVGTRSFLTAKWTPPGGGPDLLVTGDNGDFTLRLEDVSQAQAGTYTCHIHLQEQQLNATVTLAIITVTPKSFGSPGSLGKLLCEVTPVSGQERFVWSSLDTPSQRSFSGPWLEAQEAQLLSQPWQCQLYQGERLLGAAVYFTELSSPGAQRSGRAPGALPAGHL
Experimental: (§1) The FACS reaction plate incubating the Raji cells was centrifuged to discard the supernatant. The above mixture was added as 100 μl per well to Raji cells and incubated on ice for 1-2 hours. The plate was washed twice with blocking solution (PBS, 2% fetal bovine serum) by centrifugation, added with 100 microliters of fluorescent (Alexa 488)-labeled secondary antibodies per well, and incubated on ice for 1.0 hours. The plate was washed 2-3 times by centrifugation with blocking solution (PBS, 2% fetal bovine serum), added with 100 microliters of PBS per well to suspend cells, and detected using FACS (FACS Calibur, BD) and the results were analyzed. Wherein, the IgG control was murine IgG, and the data in the table is the inhibition rate (%).

[4] = target: T3, human LAG-3 protein with hFc tag (hLAG-3-hFc protein) (human, UniProt P18627 23-450); assay: FACS, blocks LAG-3-hFc binding to MHC II on Raji; 200.000 nM
T3 construct: also called immunogen 1; LAG-3 extracellular domain protein; not shown: human IgG Fc fragment (hFc) of the pCpC vector
T3 sequence: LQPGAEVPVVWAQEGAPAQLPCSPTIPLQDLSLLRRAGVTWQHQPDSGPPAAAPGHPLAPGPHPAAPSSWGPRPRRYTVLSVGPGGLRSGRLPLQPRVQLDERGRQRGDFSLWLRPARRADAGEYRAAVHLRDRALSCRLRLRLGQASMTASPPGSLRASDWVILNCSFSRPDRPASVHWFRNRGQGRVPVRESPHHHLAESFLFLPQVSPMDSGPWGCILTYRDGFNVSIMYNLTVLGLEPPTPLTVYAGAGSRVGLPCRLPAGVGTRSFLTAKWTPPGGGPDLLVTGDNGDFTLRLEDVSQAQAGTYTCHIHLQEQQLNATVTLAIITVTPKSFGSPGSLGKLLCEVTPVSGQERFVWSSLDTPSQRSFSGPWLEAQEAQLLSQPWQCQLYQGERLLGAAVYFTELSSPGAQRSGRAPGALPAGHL
Experimental: as §1

B1: 556F6B8 mouse-human chimeric antibody (antibody, V domains shown)
VH: RVQLKQSGPGLVQPSQSLSITCTVSGFSLIKYGVHWVRQSPGEGLEWLGVIWRGGITDYNAAFMSRLSITKDNSKSQVFFKMNSLQADDTAIYYCAKWDGPLAMDYWGQGTSVTVSS
VL: DIVMTQSHKFLSTSVGDRVSITCKASQDVGTTVAWYQQKPGQSPKLLIYWASTRHTGVPDRFTGSGSGTDFTLTISNVQSEDLADYFCQQYSSYPYTFGGGTKLEIK
notes: also called mAb123-556F6B8; 556F8B8
- Mean fluorescence intensity [1]: 6.5
- IL-2 production, antigen-specific T lymphocyte stimulation test, 0.016 ug/ml, N = 1 [2]: 348 pg/mL
- IL-2 production, antigen-specific T lymphocyte stimulation test, 0.016 ug/ml, N = 2 [2]: 353 pg/mL
- IL-2 production, antigen-specific T lymphocyte stimulation test, 0.08 ug/ml, N = 1 [2]: 499 pg/mL
- IL-2 production, antigen-specific T lymphocyte stimulation test, 0.08 ug/ml, N = 2 [2]: 491 pg/mL
- IL-2 production, antigen-specific T lymphocyte stimulation test, 0.4 ug/ml, N = 1 [2]: 794 pg/mL
- IL-2 production, antigen-specific T lymphocyte stimulation test, 0.4 ug/ml, N = 2 [2]: 599 pg/mL
- IL-2 production, antigen-specific T lymphocyte stimulation test, 2 ug/ml, N = 1 [2]: 818 pg/mL
- IL-2 production, antigen-specific T lymphocyte stimulation test, 2 ug/ml, N = 2 [2]: 866 pg/mL
- IL-2 production, antigen-specific T lymphocyte stimulation test, 10 ug/ml, N = 1 [2]: 584 pg/mL
- IL-2 production, antigen-specific T lymphocyte stimulation test, 10 ug/ml, N = 2 [2]: 722 pg/mL
- Inhibition rate (%) [3]: 82.7%

B2: 556F6B8 (mouse antibody purified from hybridoma) (antibody, V domains shown)
VH: RVQLKQSGPGLVQPSQSLSITCTVSGFSLIKYGVHWVRQSPGEGLEWLGVIWRGGITDYNAAFMSRLSITKDNSKSQVFFKMNSLQADDTAIYYCAKWDGPLAMDYWGQGTSVTVSS
VL: DIVMTQSHKFLSTSVGDRVSITCKASQDVGTTVAWYQQKPGQSPKLLIYWASTRHTGVPDRFTGSGSGTDFTLTISNVQSEDLADYFCQQYSSYPYTFGGGTKLEIK
notes: also called mAb123-556F6B8
- Inhibition rate (%) [4]: 96%

B3: 405B8H3 (mouse antibody purified from hybridoma) (antibody, V domains shown)
VH: QVQLQQSGAELVRPGASVTLSCKASGYTFTDYEMHWVKQTPVHGLEWIGATDPETGNSAYNQKFKGKAIMTADKSSSTAYMELRSLTSEDSAVYYCISTGWNDWGQGTSLTVSS
VL: DIKMTQSPSSMYASLGERVTITCKASQDINSYLSWFQQKPGKSPKTLIYRADRLLDGVPSRFSGSGSGQDYSLTISSLEYGDMGIYYCLQYDEFPYTFGGGTKLEIK
notes: also called mAb103-405B8H3; 405B81-13
- Inhibition rate (%) [4]: 93.9%

B4: 105F1E10 (mouse antibody purified from hybridoma) (antibody, V domains shown)
VH: EVQLQQSGPELVKPGASVKMSCRASGYTFTDFKMHWMKQSHGKSLEWIGYIAPNNGGTAYNQKFRGKATLTVNESSNTAYMELRSLTSEDSAVYYCVDWDDVDYWGQGTTLTVSS
VL: DIKMTQSPSSMYASLGERVTITCKASQDINSYLSWFQQKSGKSPKTLIYRANRLVDGVPSRFSGSGSGQDYSLTISSLEYEDMGIYYCLQYVEFPLTFGAGTKLELK
notes: also called mAb009-105F1E10
- Inhibition rate (%) [4]: 93.1%
